{"source": "the DeepSol protein solubility set"}
{"assay": "soluble on expression in E. coli; label from the status in PepcDB or PDB records"}
{"sequence": "MEFIMKTRMFEEEGWIRKKCKVCGKPFWTLDPDRETCGDPPCDEYQFIGKPGIPRKYTLDEMREKFLRFFEKHEIYPHGRVKRYPVLPRWRDDVLLVGASIMDFQPWVISGEADPPANPLVISQPSIRFTDIDNVGITGRHFTIFEMMAHHAFNYPGKPIYWMDETVELAFEFFTKELKMKPEDITFKENPWAGGGNAGPAFEVLYRGLEVATLVFMQYKKAPENAPQDQVVVIKGEKYIPMETKVVDTGYGLERLVWMSQGTPTAYDAVLGYVVEPLKKMAGIEKIDEKILMENSRLAGMFDIEDLGDLRYLREQVAKRVGITVEELEKAIRPYELIYAIADHTKALTFMLADGVVPSNVKAGYLARLLIRKSIRHLRELGLEVPLSEIVALHIKELHKTFPEFKEMEDIILEMIELEEKKYAETLRRGSDLVRREIAKLKKKGIKEIPVEKLVTFYESHGLTPEIVKEIAEKEGVKVNIPDNFYSMVAKEAERTKEEKGEELVDFELLKDLPDTRRLYYEDPFMKEFDAKVLRVIKDWVILDATAFYPEGGGQPYDTGVLIVNGREVKVTNVQKVGKVIIHKVEDPGAFKEGMIVHGKIDWKRRIQHMRHHTGTHVLMGALVRVLGRHVWQAGSQLTTDWARLDISHYKRISEEELKEIEMLANRIVMEDRKVTWEWLPRTTAEQKYGFRLYQGGVVPGREIRVVKIEDWDVQACGGTHLPSTGLVGPIKILRTERIQDGVERIIFACGE", "soluble on expression in E. coli": "soluble"}
{"sequence": "MSLKIRSITATPINLRLEAPYGWVFGELDGFSQTIVEVETEDGLIGLGEAPTPAAAAIINDVLAERLVGRDAFDIAGAEHVCLPYWTGVQSINDRTRIMAFGAIEMALWDLRGKAWNQPLYQLLGGAVRKDIPFTDYFSLRGDGPKVKGETTPEEVADYCVELHETHGTTFFEGKFSTEDPKVSLRMVELIRAKLGDEAMIRIDSNQAYSLATARRLARPLEELGVRNWEDPVATIEEMRQLRQHCSIPFSTHNIDIARAMDLKVPDAFVGNPTAHGGIGRLLRFVGACEHAGVDFWCYSGDSGIGSAAYLHLCAALGWIREPNQSLFRMQPMDITEEGPFSPRNNVVRVPEGPGLGVTLSRKNLAACHRDFAENGPCNKYHDPAKPGTYRRLPLNEGHHHHHH", "soluble on expression in E. coli": "soluble"}
{"sequence": "MSLEISFTRVALLAAALFFVGCDQKPQPAKTHATEVTVLEGKTMGTFWRASIPGIDAKRSAELKEKIQTQLDADDQLLSTYKKDSALMRFNDSQSLSPWPVSEAMADIVTTSLRIGAKTDGAMDITVGPLVNLWGFGPEQQPVQIPSQEQIDAMKAKTGLQHLTVINQSHQQYLQKDLPDLYVDLSTVGEGYAADHLARLMEQEGISRYLVSVGGALNSRGMNGEGLPWRVAIQKPTDKENAVQAVVDINGHGISTSGSYRNYYELDGKRLSHVIDPQTGRPIEHNLVSVTVIAPTALEADAWDTGLMVLGPEKAKEVVRREGLAVYMITKEGDSFKTWMSPQFKSFLVSEKEGGSHHHHHH", "soluble on expression in E. coli": "soluble"}
{"sequence": "RHVTGVHSPTKPASYSVKWTIEEKELFEQGLAKFGRRWTKISKLIGSRTVLQVKSYARQYFKNKVKCGLDKETPNQKTGHNLQVKNEDKGTKAWTPSCLRGRADPNLNAVKIEKLSDDEEVDITDEVDELSSQTPQKNSSSDLLLDFPNSKMHETNQGEFIASDSQEALFSKSSRGCLQNEKQDETLSSSEITLWTEKQSNGDKKSIELNDQKFNELIKNCNKHDGRGIIVDARQLPSPEPCEIQKNLNDNEMLFHSCQMVEESHEEEELKPPEQEIEIDRNIIQEEEKQAIPEFFEGRQAKTPERYLKIRNYILDQWEICKPKYLNKTSVRPGLKNCGDVNCIGRIHTYLELIGAINFGCEQAVYNRPQTVDKVRIRDRKDAVEAYQLAQRLQSMRTRRRRVRDPWGNWCDAKDLEGQTFEHLSAEELAKRREEEKGRPVKSLKVPRPTKSSFDPFQLIPCNFFSEEKQEPFQVKVASEALLIMDLHAHVSMAEVIGLLGGRYSEVDKVVEVCAAEPCNSLSTGLQCEMDPVSQTQASETLAVRGFSVIGWYHSHPAFDPNPSLRDIDTQAKYQSYFSRGGAKFIGMIVSPYNRNNPLPYSQITCLVISEEISPDGSYRLPYKFEVQQMLEEPQWGLVFEKTRWIIEKYRLSHSSVPMDKIFRRDSDLTCLQKLLECMRKTLSKVTNCFMAEEFLTEIENLFLSNYKSNQENGVTEENCTKELLM", "soluble on expression in E. coli": "soluble"}
{"sequence": "MSLKKIGVLGMGYVGIPAAVLFADAPCFEKVLGFQRNSKSSGYKIEMLNRGESPLKGEEPGLEELIGKVVKAGKFECTPDFSRISELDAVTLAIQTPFANPKDLEPDFSALIDGIRNVGKYLKPGMLVVLESTITPGTTEGMAKQILEEESGLKAGEDFALAHAPERVMVGRLLKNIREHDRIVGGIDEASTKRAVELYSPVLTVGQVIPMSATAAEVTKTAENTFRDLQIAAINQLALYCEAMGINVYDVRTGVDSLKGEGITRAVLWPGAGVGGHCLTKDTYHLERGVKIGRGELDYPEGADSIYVLARKVNDFMPAHMYNLTVAALERLGKKMDGSKVAMLGWAFIKDSDDARNTPSEPYRDLCLKAGASVMVHDPYVVNYPGVEISDNLEEVVRNADAIVVLAGHSAYSSLKADWAKKVSAKANPVIIDGRNVIEPDEFIGKGFVYKGIGREGHHHHHH", "soluble on expression in E. coli": "not soluble"}
{"sequence": "MDKQVRNTTEIVRLAKQKSKKTREKVDKAISKFSIEGKVINFNSIAKEANVSKSWLYKEHDIRQRIESLRERQITANVVSKPKKSSRSEEILIKTLKRRVMELEKENKKLQNQIQKLYGDLYNKELEHHHHHH", "soluble on expression in E. coli": "soluble"}
{"sequence": "MADHNNTPPFDLTKLDHYIKYQPREEAEDFFVHVEVKVLGKGSSPLEISFSTSVYEFVWEDEDCYELVELYEFFTEDAGIDAFEAQFLVNDLILYVNKTTRPLDEDFTGVFKLMAEVTLKPVQLNHAGSQKTESQQP", "soluble on expression in E. coli": "soluble"}
{"sequence": "NYMGNPWTEYMAKYDIEEVHGSGIRVDLGEDAEVAGTQYRLPSGKCPVFGKGIIIENSNTTFLTPVATGNQYLKDGGFAFPPTEPLMSPMTLDEMRHFYKDNKYVKNLDELTLCSRHAGNMIPDNDKNSNYKYPAVYDDKDKKCHILYIAAQENNGPRYCNKDESKRNSMFCFRPAKDISFQNYTYLSKNVVDNWEKVCPRKNLQNAKFGLWVDGNCEDIPHVNEFPAIDLFECNKLVFELSASDQPKQYEQHLTDYEKIKEGFKNKNASMIKSAFLPTGAFKADRYKSHGKGYNWGNYNTETQKCEIFNVKPTCLINNSSYIATTALSHPIEVE", "soluble on expression in E. coli": "soluble"}
{"sequence": "MSLELKITDFKVFVAQANFEWAFVRIYSKDLYGTGEAGPAPGLKGMESEFIQLLIGEDAFKVNRIAEKLRYATLYSGTTVYHLISAINIALYDLIGKYLNVPIYKLLGGDKTEIPVYVDAHGGKGLEAINALHLPVNLPWIKEAEVETNRLITTNNPVHGRLSMEKWNEDYSPEAYAKRALKMKNEGYKAMKFDLDVPTPYIDLRRVRNGDLSLKDIDYMVDIVKAVRESVGDEVEIMFDLHWRYNLNTAIRICKALEPYRLRWLEDPMPAIMAVSNYDELKLLTSQCSVPIETGENLYTVYQFKDLLNTGVRVWAPDIVKAGGITEGRRIAELAAMYDIEYSPHNIASPIGTMAHAHVGSIANTFGFVEFHGHDVPFWNEIVKPKRKIIEDGVIKLTDDPGLGIDLDDEVMRKYWPTYELEGHHHHHH", "soluble on expression in E. coli": "not soluble"}
{"sequence": "MVEIKLENIVKKFGNFTALNNINLKIKDGEFMALLGPSGSGKSTLLYTIAGIYKPTSGKIYFDEKDVTELPPKDRNVGLVFQNWALYPHMTVYKNIAFPLELRKAPREEIDKKVREVAKMLHIDKLLNRYPWQLSGGQQQRVAIARALVKEPEVLLLDEPLSNLDALLRLEVRAELKRLQKELGITTVYVTHDQAEALAMADRIAVIREGEILQVGTPDEVYYKPKYKFVGGFLGNPPMNFVEAKVEDGKLVITEKSKLPIPKQYVEIVKETGITEVIIGFRPHDAEIVKGEGEGIVGEVYSFEPLGREQIVTVSVNDSIVKVFAPEGEHFSFGEKVTIKVKEELLVLFDKKTEKALEFSKL", "soluble on expression in E. coli": "soluble"}
{"sequence": "NGLLYKRWVKQRAEDVEKWSGGRLGYVHIQSMGDGSFRTVYSDILGKYNNCDGIVIDTRFNGGGRLHEDIEILFSGQKYFTQVVRGREACDMPSRRWNKPSIMLQCEANYSNAHGTPWVYKHQNIGKLVGMPVPGTMTSVSWETLQDPSLVFGIPIIGYRLPDGSYLENTQLEPDIKVANSPETIVKGEDTQLKMAVDELLKEIDSRKK", "soluble on expression in E. coli": "not soluble"}
{"sequence": "MSTYYQSAPVLVHAHAYQPPLSPPQSPPHGYLPFYTSNPMMCSTSPLYFSPQMVQPLPPQQHYHMYPSTSAGPGMYYTDFNPHYVQIQISQSVSHDKILAGGPKDNCTVARGRKTHVDHRQLSIEKLHPLLLQFKLTTSELETNAYPMRRDGSTKAVSIADTVYTQNKKMFLDDYDMSRNCSRCNKEFKLSPNGTMIRSTGICRYHNRGVAINGKRDTFRKRYSCCNEEFNVALGCKFSDVHVTDQLFKKELSTFVSTPVPVPNDQRSTRVYALDCEMVYTIAGPALARLTMVDMQRNRVLDVFVKPPTDVLDPNTEFSGLTMEQINSAPDTLKTCHQKLFKYVNADTILIGHSLESDLKAMRVVHKNVIDTAILFRSTRDTKVALKVLSAKLLHKNIQGDNEDAIGHDSMEDALTCVDLIFYGLRNPESIAIREANTNC", "soluble on expression in E. coli": "not soluble"}
{"sequence": "MARQLRAEQTRATIIGAAADLFDRRGYESTTLSEIVAHAGVTKGALYFHFAAKEDLAHAILEIQSRTSRRLAKDLDGRGYSSLEALMRLTFGMARLCVQGPVLRAGLRLATAGVPVRPPLPHPFTEWREIATSRLLDAVRQSDVHQDIDVDSVAHTLVCSVVGTRVVGGTLEPAGREPRRLAEMWYILIRGMVPVTRRARYVTLAARLEQETGTA", "soluble on expression in E. coli": "soluble"}
{"sequence": "MGSDKIHHHHHHMKIGIIGAGRVGCSIGKYLRTKDIELAGYYDVDSAAAKEAAEFTRTESFDSLKQLADQSQIIFITTPDSFIIPVWEQLKELSLTNQIICHCSGALSSDSFSGRESMSVSCCSIHPMLPFSNKFSSYEQLNKAFFTVEGQDAAVEAISGLFCSIGNEVCRIDGAKKAKYHAAASILSNQVIAVLDMGYSLLEDCGFTRAEAVRATGQLVMRNIENVLEAGCDGALTGPIERNDIETVKKHIACMQNDDSDDVRLYKMLGTKLVNIAEKKNPDKDYTQMMELLRG", "soluble on expression in E. coli": "not soluble"}
{"sequence": "MGSDKIHHHHHHMIIESRIEKGKPVVGMETTVFVHGLPRKEAIELFRRAKEISREKGFQLAVIGILKGKIVAGMSEEELEAMMREGADKVGTREIPIVVAEGKNAATTVSATIFLSRRIGIEVVVTGGTGGVHPGRVDVSQDLTEMSSSRAVLVSSGIKSILDVEATFEMLETLEIPLVGFRTNEFPLFFSRKSGRRVPRIENVEEVLKIYESMKEMELEKTLMVLNPVPEEYEIPHDEIERLLEKIELEVEGKEVTPFLLKKLVEMTNGRTLKANLALLEENVKLAGEIAVKLKRS", "soluble on expression in E. coli": "not soluble"}
{"sequence": "QVQLVESGGGLVQPGGSLRLSCATSGFTFTDYYMSWVRQPPGKALEWLGFIRNKANGYTTEYSASVKGRFTISRDNSQSILYLQMNTLRAEDSATYYCARDGSYAMDYWGQGTSVTVSSASTKGPSVFPLAPSSKSTSGGTAALGCLVKDYFPEPVTVSWNSGALTSGVHTFPAVLQSSGLYSLSSVVTVPSSSLGTQTYICNVNHKPSNTKVDKKVEP", "soluble on expression in E. coli": "soluble"}
{"sequence": "MGFQLRGDYLLDDDLQTLYVSSSDIHGELTRLVKLNLTRNQVNVLKHSKADVPELRILSDKLDRRTLSLFSNGQVAEYELIYSVHYQVRFTGEDARDFRFELYRDYQDDPNIALAKSRELSLLLSEMRTSAADKILRDLARIQRLEHHHHHH", "soluble on expression in E. coli": "soluble"}
{"sequence": "MGSDKIHHHHHHMRPVYIATAYLGPIQQYCKMLQYPEVRIETAENYVKQTYRNRCVIAAANGPLSLSIPIVKPDTLKCQTKDIRISDHGNWRHLHWNALVSAYNMSPFFEYYADDLAPFYEKKYEFLLDFNEELRRLVCDLLDMQPAVVYTEHYEPEVANDFRETIRPKHEGEDPAFRPEPYYQVFREKFGFLPNLSIADLLFNMGPEGLVTLRASITGSL", "soluble on expression in E. coli": "not soluble"}
